Experimental data: patent US20130157953A1, “TREATMENT OF CARDIAC CONDITIONS” (Zealand Pharma A/S, priority 2010, published 2013)
Numbered stars: 1 amine (or outer) side, 2 acyl side, 3 side chain; on linkers, the order of the positions; unused ones are H or OH. Bridge positions count the residues as written; N and C are the ends. Square brackets hold non-standard residues; d marks the D form. Side chains are listed from the residue outwards. * marks the point of attachment. γGlu = O=C(O)[C@H](CCC(=O)[*:2])N[*:1]; εLys = N[C@@H](CCCCN[*:1])C(=O)[*:2]; Palmitoyl = CCCCCCCCCCCCCCCC(=O)*; Lauroyl = CCCCCCCCCCCC(=O)*; Aib = CC(C)(N)C(=O)O; Aoc = NCCCCCCCC(=O)O

B1: Compound 217 (peptide)
peptide: H-H[Aib]QGTFTSDYSKYLDSK([εLys-Palmitoyl])AAHDFVEWLLSA-NH2
SMILES: CCCCCCCCCCCCCCCC(=O)NCCCC[C@H](N)C(=O)NCCCC[C@H](NC(=O)[C@H](CO)NC(=O)[C@H](CC(=O)O)NC(=O)[C@H](CC(C)C)NC(=O)[C@H](Cc1ccc(O)cc1)NC(=O)[C@H](CCCCN)NC(=O)[C@H](CO)NC(=O)[C@H](Cc1ccc(O)cc1)NC(=O)[C@H](CC(=O)O)NC(=O)[C@H](CO)NC(=O)[C@@H](NC(=O)[C@H](Cc1ccccc1)NC(=O)[C@@H](NC(=O)CNC(=O)[C@H](CCC(N)=O)NC(=O)C(C)(C)NC(=O)[C@@H](N)Cc1c[nH]cn1)[C@@H](C)O)[C@@H](C)O)C(=O)N[C@@H](C)C(=O)N[C@@H](C)C(=O)N[C@@H](Cc1c[nH]cn1)C(=O)N[C@@H](CC(=O)O)C(=O)N[C@@H](Cc1ccccc1)C(=O)N[C@H](C(=O)N[C@@H](CCC(=O)O)C(=O)N[C@@H](Cc1c[nH]c2ccccc12)C(=O)N[C@@H](CC(C)C)C(=O)N[C@@H](CC(C)C)C(=O)N[C@@H](CO)C(=O)N[C@@H](C)C(N)=O)C(C)C
B2: Compound 206 (peptide)
peptide: H-H[Aib]QGTFTSDYSKYLDSK([γGlu-Palmitoyl])AAHDFVEWLLRA-NH2
SMILES: CCCCCCCCCCCCCCCC(=O)N[C@@H](CCC(=O)NCCCC[C@H](NC(=O)[C@H](CO)NC(=O)[C@H](CC(=O)O)NC(=O)[C@H](CC(C)C)NC(=O)[C@H](Cc1ccc(O)cc1)NC(=O)[C@H](CCCCN)NC(=O)[C@H](CO)NC(=O)[C@H](Cc1ccc(O)cc1)NC(=O)[C@H](CC(=O)O)NC(=O)[C@H](CO)NC(=O)[C@@H](NC(=O)[C@H](Cc1ccccc1)NC(=O)[C@@H](NC(=O)CNC(=O)[C@H](CCC(N)=O)NC(=O)C(C)(C)NC(=O)[C@@H](N)Cc1c[nH]cn1)[C@@H](C)O)[C@@H](C)O)C(=O)N[C@@H](C)C(=O)N[C@@H](C)C(=O)N[C@@H](Cc1c[nH]cn1)C(=O)N[C@@H](CC(=O)O)C(=O)N[C@@H](Cc1ccccc1)C(=O)N[C@H](C(=O)N[C@@H](CCC(=O)O)C(=O)N[C@@H](Cc1c[nH]c2ccccc12)C(=O)N[C@@H](CC(C)C)C(=O)N[C@@H](CC(C)C)C(=O)N[C@@H](CCCNC(=N)N)C(=O)N[C@@H](C)C(N)=O)C(C)C)C(=O)O
B3: Compound 213 (peptide)
peptide: H-H[Aib]QGTFTSDYSKYLDSKAAK([γGlu-Palmitoyl])DFVAWLLRA-NH2
SMILES: CCCCCCCCCCCCCCCC(=O)N[C@@H](CCC(=O)NCCCC[C@H](NC(=O)[C@H](C)NC(=O)[C@H](C)NC(=O)[C@H](CCCCN)NC(=O)[C@H](CO)NC(=O)[C@H](CC(=O)O)NC(=O)[C@H](CC(C)C)NC(=O)[C@H](Cc1ccc(O)cc1)NC(=O)[C@H](CCCCN)NC(=O)[C@H](CO)NC(=O)[C@H](Cc1ccc(O)cc1)NC(=O)[C@H](CC(=O)O)NC(=O)[C@H](CO)NC(=O)[C@@H](NC(=O)[C@H](Cc1ccccc1)NC(=O)[C@@H](NC(=O)CNC(=O)[C@H](CCC(N)=O)NC(=O)C(C)(C)NC(=O)[C@@H](N)Cc1c[nH]cn1)[C@@H](C)O)[C@@H](C)O)C(=O)N[C@@H](CC(=O)O)C(=O)N[C@@H](Cc1ccccc1)C(=O)N[C@H](C(=O)N[C@@H](C)C(=O)N[C@@H](Cc1c[nH]c2ccccc12)C(=O)N[C@@H](CC(C)C)C(=O)N[C@@H](CC(C)C)C(=O)N[C@@H](CCCNC(=N)N)C(=O)N[C@@H](C)C(N)=O)C(C)C)C(=O)O
B4: Compound 214 (peptide)
peptide: H-H[Aib]QGTFTSDYSKYLDSK([γGlu-Lauroyl])AAHDFVEWLLSA-NH2
SMILES: CCCCCCCCCCCC(=O)N[C@@H](CCC(=O)NCCCC[C@H](NC(=O)[C@H](CO)NC(=O)[C@H](CC(=O)O)NC(=O)[C@H](CC(C)C)NC(=O)[C@H](Cc1ccc(O)cc1)NC(=O)[C@H](CCCCN)NC(=O)[C@H](CO)NC(=O)[C@H](Cc1ccc(O)cc1)NC(=O)[C@H](CC(=O)O)NC(=O)[C@H](CO)NC(=O)[C@@H](NC(=O)[C@H](Cc1ccccc1)NC(=O)[C@@H](NC(=O)CNC(=O)[C@H](CCC(N)=O)NC(=O)C(C)(C)NC(=O)[C@@H](N)Cc1c[nH]cn1)[C@@H](C)O)[C@@H](C)O)C(=O)N[C@@H](C)C(=O)N[C@@H](C)C(=O)N[C@@H](Cc1c[nH]cn1)C(=O)N[C@@H](CC(=O)O)C(=O)N[C@@H](Cc1ccccc1)C(=O)N[C@H](C(=O)N[C@@H](CCC(=O)O)C(=O)N[C@@H](Cc1c[nH]c2ccccc12)C(=O)N[C@@H](CC(C)C)C(=O)N[C@@H](CC(C)C)C(=O)N[C@@H](CO)C(=O)N[C@@H](C)C(N)=O)C(C)C)C(=O)O
B5: Compound 210 (peptide)
peptide: H-H[Aib]QGTFTSDYSKYLDSK([γGlu-Palmitoyl])AAHDFVEWLLKA-NH2
modifications: lactam 24-28
SMILES: CCCCCCCCCCCCCCCC(=O)N[C@@H](CCC(=O)NCCCC[C@H](NC(=O)[C@H](CO)NC(=O)[C@H](CC(=O)O)NC(=O)[C@H](CC(C)C)NC(=O)[C@H](Cc1ccc(O)cc1)NC(=O)[C@H](CCCCN)NC(=O)[C@H](CO)NC(=O)[C@H](Cc1ccc(O)cc1)NC(=O)[C@H](CC(=O)O)NC(=O)[C@H](CO)NC(=O)[C@@H](NC(=O)[C@H](Cc1ccccc1)NC(=O)[C@@H](NC(=O)CNC(=O)[C@H](CCC(N)=O)NC(=O)C(C)(C)NC(=O)[C@@H](N)Cc1c[nH]cn1)[C@@H](C)O)[C@@H](C)O)C(=O)N[C@@H](C)C(=O)N[C@@H](C)C(=O)N[C@@H](Cc1c[nH]cn1)C(=O)N[C@@H](CC(=O)O)C(=O)N[C@@H](Cc1ccccc1)C(=O)N[C@H](C(=O)N[C@H]1CCC(=O)NCCCC[C@@H](C(=O)N[C@@H](C)C(N)=O)NC(=O)[C@H](CC(C)C)NC(=O)[C@H](CC(C)C)NC(=O)[C@H](Cc2c[nH]c3ccccc23)NC1=O)C(C)C)C(=O)O
B6: Compound 216 (peptide)
peptide: H-H[Aib]QGTFTSDYSKYLDSK([Aoc-Palmitoyl])AAHDFVEWLLSA-NH2
SMILES: CCCCCCCCCCCCCCCC(=O)NCCCCCCCC(=O)NCCCC[C@H](NC(=O)[C@H](CO)NC(=O)[C@H](CC(=O)O)NC(=O)[C@H](CC(C)C)NC(=O)[C@H](Cc1ccc(O)cc1)NC(=O)[C@H](CCCCN)NC(=O)[C@H](CO)NC(=O)[C@H](Cc1ccc(O)cc1)NC(=O)[C@H](CC(=O)O)NC(=O)[C@H](CO)NC(=O)[C@@H](NC(=O)[C@H](Cc1ccccc1)NC(=O)[C@@H](NC(=O)CNC(=O)[C@H](CCC(N)=O)NC(=O)C(C)(C)NC(=O)[C@@H](N)Cc1c[nH]cn1)[C@@H](C)O)[C@@H](C)O)C(=O)N[C@@H](C)C(=O)N[C@@H](C)C(=O)N[C@@H](Cc1c[nH]cn1)C(=O)N[C@@H](CC(=O)O)C(=O)N[C@@H](Cc1ccccc1)C(=O)N[C@H](C(=O)N[C@@H](CCC(=O)O)C(=O)N[C@@H](Cc1c[nH]c2ccccc12)C(=O)N[C@@H](CC(C)C)C(=O)N[C@@H](CC(C)C)C(=O)N[C@@H](CO)C(=O)N[C@@H](C)C(N)=O)C(C)C
B7: Compound 209 (peptide)
peptide: H-H[Aib]QGTFTSDYSKYLDSKAAHDFVEWLLK([γGlu-Palmitoyl])A-NH2
SMILES: CCCCCCCCCCCCCCCC(=O)N[C@@H](CCC(=O)NCCCC[C@H](NC(=O)[C@H](CC(C)C)NC(=O)[C@H](CC(C)C)NC(=O)[C@H](Cc1c[nH]c2ccccc12)NC(=O)[C@H](CCC(=O)O)NC(=O)[C@@H](NC(=O)[C@H](Cc1ccccc1)NC(=O)[C@H](CC(=O)O)NC(=O)[C@H](Cc1c[nH]cn1)NC(=O)[C@H](C)NC(=O)[C@H](C)NC(=O)[C@H](CCCCN)NC(=O)[C@H](CO)NC(=O)[C@H](CC(=O)O)NC(=O)[C@H](CC(C)C)NC(=O)[C@H](Cc1ccc(O)cc1)NC(=O)[C@H](CCCCN)NC(=O)[C@H](CO)NC(=O)[C@H](Cc1ccc(O)cc1)NC(=O)[C@H](CC(=O)O)NC(=O)[C@H](CO)NC(=O)[C@@H](NC(=O)[C@H](Cc1ccccc1)NC(=O)[C@@H](NC(=O)CNC(=O)[C@H](CCC(N)=O)NC(=O)C(C)(C)NC(=O)[C@@H](N)Cc1c[nH]cn1)[C@@H](C)O)[C@@H](C)O)C(C)C)C(=O)N[C@@H](C)C(N)=O)C(=O)O

Assays:
human GLP-1R = biological target: T1, human GLP-1R (Homo sapiens, UniProt P43220); test: cAMP formation in HEK293 cells expressing human GLP-1R; assay type: cell-based; settings: 15 min at 37° C.
T1 construct: expressed in transfected cells; host or cells: HEK293
Text: Similarly, activation of the GLP-1 receptor by a GLP-1 agonist will stimulate cellular cAMP formation. Thus, production of cAMP in suitable cells expressing one of these two receptors can be used to monitor the relevant receptor activity.
The skilled person will be aware of suitable assay formats, and examples are provided below. […] (Where sequences of precursor proteins are referred to, it should of course be understood that assays may make use of the mature protein, lacking the signal sequence).
On the day of analysis, growth medium was removed and the cells washed once with 200 μl Tyrode buffer. Cells were incubated in […] containing increasing concentrations of test peptides, 100 μM IBMX, and 6 mM glucose for 15 min at 37° C. The reaction was stopped by addition of 25 μl 0.5 M HCl and incubated on ice for 60 min. The cAMP content was estimated using the FlashPlate® cAMP kit from Perkin-Elmer. EC50 values were estimated by computer aided curve fitting.

[1] = biological target: human glucagon-like peptide 1 receptor (GLP-1R) (human, UniProt P43220 24-463); test: cell-based or functional assay
[2] = biological target: human glucagon receptor (Glucagon-R) (human, UniProt P47871 26-477); test: cell-based or functional assay
Sequence of human glucagon receptor (Glucagon-R) (P47871 26-477): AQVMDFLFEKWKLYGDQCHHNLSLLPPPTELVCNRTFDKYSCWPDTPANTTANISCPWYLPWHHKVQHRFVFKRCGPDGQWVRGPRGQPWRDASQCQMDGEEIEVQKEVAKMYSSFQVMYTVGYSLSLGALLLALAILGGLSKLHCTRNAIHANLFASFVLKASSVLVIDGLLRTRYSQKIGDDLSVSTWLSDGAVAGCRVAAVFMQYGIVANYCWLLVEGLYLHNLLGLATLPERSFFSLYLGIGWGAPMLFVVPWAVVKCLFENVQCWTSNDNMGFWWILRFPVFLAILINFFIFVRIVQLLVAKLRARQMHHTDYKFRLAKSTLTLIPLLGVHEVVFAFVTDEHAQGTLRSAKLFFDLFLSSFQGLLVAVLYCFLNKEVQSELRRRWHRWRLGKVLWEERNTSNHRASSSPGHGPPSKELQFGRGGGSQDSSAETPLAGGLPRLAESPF

T1 sequence (P43220 24-463): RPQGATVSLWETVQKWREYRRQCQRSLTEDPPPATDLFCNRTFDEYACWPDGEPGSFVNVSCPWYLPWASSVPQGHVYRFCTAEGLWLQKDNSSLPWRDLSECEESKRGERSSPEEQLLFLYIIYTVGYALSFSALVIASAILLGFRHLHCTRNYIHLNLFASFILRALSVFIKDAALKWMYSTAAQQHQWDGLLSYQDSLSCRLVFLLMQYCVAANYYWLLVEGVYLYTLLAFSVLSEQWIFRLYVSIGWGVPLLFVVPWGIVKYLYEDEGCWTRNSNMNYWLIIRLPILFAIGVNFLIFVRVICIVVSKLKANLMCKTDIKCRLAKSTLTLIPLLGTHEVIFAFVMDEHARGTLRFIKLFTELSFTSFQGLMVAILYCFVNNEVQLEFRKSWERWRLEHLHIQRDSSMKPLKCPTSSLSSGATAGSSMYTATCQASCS

Row | EC50 (human GLP-1R) [nM] | EC50 (nM) GLP-1R; cAMP content, HEK293 cells expressing human GLP-1R [1] [nM] | EC50 (nM) GuR; cAMP content, HEK293 cells expressing the human glucagon receptor [2] [nM] | Molecule
1 | 0.09 |  |  | CCCCCCCCCCCCCCCC(=O)NCCCC[C@H](N)C(=O)NCCCC[C@H](NC(=O)[C@H](CO)NC(=O)[C@H](CC(=O)O)NC(=O)[C@H](CC(C)C)NC(=O)[C@H](Cc1ccc(O)cc1)NC(=O)[C@H](CCCCN)NC(=O)[C@H](CO)NC(=O)[C@H](Cc1ccc(O)cc1)NC(=O)[C@H](CC(=O)O)NC(=O)[C@H](CO)NC(=O)[C@@H](NC(=O)[C@H](Cc1ccccc1)NC(=O)[C@@H](NC(=O)CNC(=O)[C@H](CCC(N)=O)NC(=O)C(C)(C)NC(=O)[C@@H](N)Cc1c[nH]cn1)[C@@H](C)O)[C@@H](C)O)C(=O)N[C@@H](C)C(=O)N[C@@H](C)C(=O)N[C@@H](Cc1c[nH]cn1)C(=O)N[C@@H](CC(=O)O)C(=O)N[C@@H](Cc1ccccc1)C(=O)N[C@H](C(=O)N[C@@H](CCC(=O)O)C(=O)N[C@@H](Cc1c[nH]c2ccccc12)C(=O)N[C@@H](CC(C)C)C(=O)N[C@@H](CC(C)C)C(=O)N[C@@H](CO)C(=O)N[C@@H](C)C(N)=O)C(C)C [Compound 217]
2 |  | 0.09 | 0.39 | B1
3 |  | 0.09 | 0.16 | B2
4 |  | 0.15 | 0.63 | B3
5 |  | 0.14 | 0.78 | B4
6 |  | 0.08 | 0.26 | B5
7 |  | 0.24 | 0.46 | B6
8 |  | 0.27 | 0.27 | B7
